The text below walks through data of patent US12138285B2, “Cholesterol reducing compositions and methods of use thereof” (The Broad Institute, Inc., priority 2019, dated 2024).

Entries after “also recorded” stand apart in the source; their conditions may differ.

What all share (format): biochemical
In assay [1] the test system is cholesterol. Kind of assay: In vitro activity assay of purified N-terminal His-tagged ECOP170 (cofactor dependence). The settings on record: purified enzyme 1.5 μM, HEPES pH 7.5, 100 μM cholesterol, 100 μM NADP+ or NAD+. The procedure:
FIG. 11 In vitro activity assay of purified N-terminal His-tagged ECOP170 expressed in BL21 E. coli. Activity assay with ECOP170 (1.5 μM) in HEPES (pH=7.5, 50 mM, 300 mM NaCl) with 100 μM cholesterol and either 100 μM of NADP^+ (red) or 100 μM of NAD^+ (blue). EICs of 2 (rt 2.60, 385.244→108.988) are shown for both conditions.
Proteins were overexpressed using the procedure described above. Cells from 200 mL of culture were pelleted by centrifugation, resuspended in 10 mL of ice-cold lysis buffer (300 mM NaCl, 10 mM imidazole, 50 mM HEPES, pH 7.5) containing one cOmplete Protease Inhibitor cocktail tablet, and lysed by 4 min of continuous passage through a cell disruptor (EmulsiFlex-C3, Avestin) at 15,000 lbs per square inch. Cell debris was removed by ultracentrifugation (20 min at 20,000×g and 4° C.), and the cell-free extract was applied to 0.5 mL of HisPur Ni-NTA Resin (Thermo Scientific) pre-equilibrated with lysis buffer by gentle rocking at 4° C. for 2 h. Non-absorbed materials and weakly bound proteins were removed by washing the column with 2×25 mL of wash buffer (300 mM NaCl, 20 mM imidazole, 50 mM HEPES, pH 7.5). His6-tagged protein was eluted with 5 mL of elution buffer (300 mM NaCl, 200 mM imidazole, 50 mM HEPES, pH 7.5). […]

The next assay has as its system coprostanol. Briefly: Lysate experiments for cholesterol oxidoreductase activity, substrate coprostanol. The settings on record: E. coli lysate expressing the enzyme, 100 μM coprostanol, 100 μM NADP+ and NAD+, 37° C. 12 h, LC-MS. The procedure: (§1) Candidate cholesterol oxidoreductase genes were amplified from genomic DNA (for E. coprostanoligenes) and cloned into pET28b. DNA was extracted from stool samples (DNeasy PowerSoil Kit, Qiagen) (for CAG:217, CAG:251 and CAG:341) or purchased from Genewiz (Ordered sequences are listed in Table 6). PCR reactions were performed with Phusion High Fidelity polymerase, and PCR products were purified (Zymoclean gel DNA recovery kit, Zymo research). The resulting gene products were assembled into pET28b using Gibson assembly and transformed into Stellar™ Competent Cells. The identities of the constructs were confirmed with DNA sequencing and transformed into E. coli BL21 strains for expression. All constructs were grown in LB with kanamycin (50 μg/mL) with the exception of the strain expressing the homolog from CAG:180 which required growth in TB for protein expression. […]
(§2) 500 mL of a culture of E. coli BL21 expressing one of the cholesterol oxidoreductase homologs were pelleted by centrifugation (20 min at 7,000 g and 4° C.), resuspended in 10 mL of ice-cold phosphate-buffered saline containing one cOmplete Protease Inhibitor cocktail tablet (Roche Diagnostics) and lysed by a cell disruptor (EmulsiFlex-C3, Avestin). […] After incubation at 37° C. for 12 h, the reaction mixtures were frozen until being analyzed using LC-MS. […]

Assay [2] deals with cholesterol. Kind of assay: Lysate experiments for cholesterol oxidoreductase activity (E. coli BL21 lysates expressing COR/HSD enzymes), substrate cholesterol. Particulars: E. coli lysate expressing the enzyme, 100 μM cholesterol, 100 μM NADP+ and NAD+, 37° C. 12 h, LC-MS. The protocol: as §1, §2
Assay [3] has as its system primary bile acids cholic acid and chenodeoxycholic acid. Kind of assay: Lysate experiments for cholesterol oxidoreductase activity, substrate primary bile acids. The settings on record: E. coli lysate expressing the enzyme. The protocol:
FIG. 12A-12B CORs from human-associated gut microbes accept cholesterol and coprostanol but not primary bile acids. Activity assay with E. coli lysates (PBS, pH=7.4) expressing one of the cholesterol oxidoreductase enzymes from human-associated microbes with FIG. 12A. […] EIC for the products of both reactions are shown.
500 mL of a culture of E. coli BL21 expressing one of the cholesterol oxidoreductase homologs were pelleted by centrifugation (20 min at 7,000 g and 4° C.), resuspended in 10 mL of ice-cold phosphate-buffered saline containing one cOmplete Protease Inhibitor cocktail tablet (Roche Diagnostics) and lysed by a cell disruptor (EmulsiFlex-C3, Avestin). Cell debris was removed by ultracentrifugation (30 min at 20,000 g and 4° C.). Protein expression was confirmed by SDS-PAGE analysis using 4-20% Mini-PROTEAN TGX gels (Bio-Rad Laboratories). Gels were stained with Coomassie Blue for visualization. The clarified supernatant was used directly in the cell lysate assay described below. Cholesterol or coprostanol (5 μL of a 10 mM solution of cholesterol or coprostanol in methanol) was added to 500 μL of clarified supernatant with 100 μM of NADP^+ and NAD^+. After incubation at 37° C. for 12 h, the reaction mixtures were frozen until being analyzed using LC-MS.

B1: ECOP170: 3β-hydroxysteroid dehydrogenase / cholesterol oxidoreductase (COR, IsmA) enzyme from E. coprostanoligenes (protein)
chain: MSTCWLQGKTVVVTGASGGMGAGIAATLIKKHGCTVIGVARNEKKMLKFVDELGETYAKQFSYELFDVSSKENWEKFAEELQEKGVKVDVLINNAGILPKFKRFDRYSYEEIERAMNINFYSCVYSVKTMLPMLLQSSTPAIINIDSSAALMTLAGTSMYSASKAALKGFTEALRVEFQGKMFVGLVCPGFTKTDIFSGQGDADMSNGAKVMDMISTDCDKMVKMIMFGIEHKTPMQVHGFDAHAMSVFNRLMPVYGSKLFSSIMRMSNVDIFKEVFSD
As for B1, the “cofactor dependence of cholesterol oxidation” value with cholesterol [1] was “showed a strict dependence on NADP^+ and not NAD^+”. Further, the “oxidation of coprostanol (4) to coprostanone (3)” value in the assay with coprostanol is “converts coprostanol (4) to coprostanone (3); also recorded: catalyzed the oxidation of coprostanol (4) to coprostanone (3); also recorded: showed activity towards coprostanol”. For the same molecule, in the assay with cholesterol [2], the “oxidation of cholesterol (1) to cholestenone (2)” value was “converts cholesterol (1) to cholestenone (2); also recorded: oxidized cholesterol to 2; also recorded: oxidized cholesterol to cholestenone”. Besides, in assay [3], the “oxidation of primary bile acids cholic acid and chenodeoxycholic acid to keto bile acids” value is “unable to oxidize the primary bile acids cholic acid and chenodeoxycholic acid; also recorded: did not oxidize the primary bile acids cholic acid and chenodeoxycholic acid”.
